Source: patent US6645728 (University of California, dated 2003)

T1: IKKα-T7 (murine, UniProt Q60680 1-745)
T1 construct: also called T7-IKKα; murine IKKα/CHUK
T1 sequence (looked up): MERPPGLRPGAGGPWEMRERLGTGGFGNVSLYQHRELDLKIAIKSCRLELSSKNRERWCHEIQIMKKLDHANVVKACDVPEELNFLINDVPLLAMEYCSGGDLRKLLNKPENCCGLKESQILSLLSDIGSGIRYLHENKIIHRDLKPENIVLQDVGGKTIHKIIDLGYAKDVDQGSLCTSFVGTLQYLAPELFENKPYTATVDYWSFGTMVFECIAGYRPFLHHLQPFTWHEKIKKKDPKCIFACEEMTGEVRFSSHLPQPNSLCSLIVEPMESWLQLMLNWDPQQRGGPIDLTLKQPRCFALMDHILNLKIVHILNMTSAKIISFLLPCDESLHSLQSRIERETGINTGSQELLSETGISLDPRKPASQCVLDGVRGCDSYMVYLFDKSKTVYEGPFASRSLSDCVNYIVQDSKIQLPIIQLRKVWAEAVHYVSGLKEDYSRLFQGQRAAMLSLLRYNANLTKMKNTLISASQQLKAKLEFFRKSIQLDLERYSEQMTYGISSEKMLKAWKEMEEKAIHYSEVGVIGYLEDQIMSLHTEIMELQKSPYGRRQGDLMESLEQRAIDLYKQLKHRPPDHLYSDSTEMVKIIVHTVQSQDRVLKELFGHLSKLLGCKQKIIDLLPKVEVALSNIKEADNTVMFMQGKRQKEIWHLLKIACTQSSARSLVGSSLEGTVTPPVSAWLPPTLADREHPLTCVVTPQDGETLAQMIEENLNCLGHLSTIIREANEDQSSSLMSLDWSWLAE

B1: Myc-N1-220 (other, not shown: small tags and cut ends)
chain: MAVMEMACPGAPGSAVGQQKELPKPKEKTPPLGKKQSSVYKLEAVEKSPVFCGKWEILNDVITKGTAKEGSEAGPAAISIIAQAECENSQEFSPTFSERIFIAGSKQYSQSESLDQIPNNVAHATEGKMARVCWKGKRRSKARKKRKKKSSKSLAHAGVALAKPLPRTPEQESCTIPVQEDESPLGAPYVRNTPQFTKPLKEPGLGQLCFKQLGEGLRPA
notes: Treated as one construct; also called Myc-N1-200; N1-200
B2: Myc-N570-947 (other, not shown: small tags and cut ends)
chain: GRSCDAKVDVWSSCCMMLHMLNGCHPWTQFFRGPLCLKIASEPPPVREIPPSCAPLTAQAIQEGLRKEPIHRVSAAELGGKVNRALQQVGGLKSPWRGEYKEPRHPPPNQANYHQTLHAQPRELSPRAPGPRPAEETTGRAPKLQPPLPPEPPEPNKSPPLTLSKEESGMWEPLPLSSLEPAPARNPSSPERKATVPEQELQQLEIELFLNSLSQPFSLEEQEQILSCLSIDSLSLSDDSEKNPSKASQSSRDTLSSGVHSWSSQAEARSSSWNMVLARGRPTDTPSYFNGVKVQIQSLNGEHLHIREFHRVKVGDIATGISSQIPAAAFSLVTKDGQPVRYDMEVPDSGIDLQCTLAPDGSFAWSWRVKHGQLENRP
B3: Myc-N1-366 (other, not shown: small tags and cut ends)
chain: MAVMEMACPGAPGSAVGQQKELPKPKEKTPPLGKKQSSVYKLEAVEKSPVFCGKWEILNDVITKGTAKEGSEAGPAAISIIAQAECENSQEFSPTFSERIFIAGSKQYSQSESLDQIPNNVAHATEGKMARVCWKGKRRSKARKKRKKKSSKSLAHAGVALAKPLPRTPEQESCTIPVQEDESPLGAPYVRNTPQFTKPLKEPGLGQLCFKQLGEGLRPALPRSELHKLISPLQCLNHVWKLHHPQDGGPLPLPTHPFPYSRLPHPFPFHPLQPWKPHPLESFLGKLACVDSQKPLPDPHLSKLACVDSPKPLPGPHLEPSCLSRGAHEKFSVEEYLVHALQGSVSSSQAHSLTSLAKTWAARGSR
notes: C-terminal deletion mutant of NIK
B4: Myc-N1-578 (other, not shown: small tags and cut ends)
chain: MAVMEMACPGAPGSAVGQQKELPKPKEKTPPLGKKQSSVYKLEAVEKSPVFCGKWEILNDVITKGTAKEGSEAGPAAISIIAQAECENSQEFSPTFSERIFIAGSKQYSQSESLDQIPNNVAHATEGKMARVCWKGKRRSKARKKRKKKSSKSLAHAGVALAKPLPRTPEQESCTIPVQEDESPLGAPYVRNTPQFTKPLKEPGLGQLCFKQLGEGLRPALPRSELHKLISPLQCLNHVWKLHHPQDGGPLPLPTHPFPYSRLPHPFPFHPLQPWKPHPLESFLGKLACVDSQKPLPDPHLSKLACVDSPKPLPGPHLEPSCLSRGAHEKFSVEEYLVHALQGSVSSSQAHSLTSLAKTWAARGSRSREPSPKTEDNEGVLLTEKLKPVDYEYREEVHWATHQLRLGRGSFGEVHRMEDKQTGFQCAVKKVRLEVFRAEELMACAGLTSPRIVPLYGAVREGPWVNIFMELLEGGSLGQLVKEQGCLPEDRALYYLGQALEGLEYLHSRRILHGDVKADNVLLSSDGSHAALCDFGHAVCLQPDGLGKSLLTGDYIPGTETHMAPEVVLGRSCDAKVD
notes: as for B3
B5: Myc-N1-624 (other, not shown: small tags and cut ends)
chain: MAVMEMACPGAPGSAVGQQKELPKPKEKTPPLGKKQSSVYKLEAVEKSPVFCGKWEILNDVITKGTAKEGSEAGPAAISIIAQAECENSQEFSPTFSERIFIAGSKQYSQSESLDQIPNNVAHATEGKMARVCWKGKRRSKARKKRKKKSSKSLAHAGVALAKPLPRTPEQESCTIPVQEDESPLGAPYVRNTPQFTKPLKEPGLGQLCFKQLGEGLRPALPRSELHKLISPLQCLNHVWKLHHPQDGGPLPLPTHPFPYSRLPHPFPFHPLQPWKPHPLESFLGKLACVDSQKPLPDPHLSKLACVDSPKPLPGPHLEPSCLSRGAHEKFSVEEYLVHALQGSVSSSQAHSLTSLAKTWAARGSRSREPSPKTEDNEGVLLTEKLKPVDYEYREEVHWATHQLRLGRGSFGEVHRMEDKQTGFQCAVKKVRLEVFRAEELMACAGLTSPRIVPLYGAVREGPWVNIFMELLEGGSLGQLVKEQGCLPEDRALYYLGQALEGLEYLHSRRILHGDVKADNVLLSSDGSHAALCDFGHAVCLQPDGLGKSLLTGDYIPGTETHMAPEVVLGRSCDAKVDVWSSCCMMLHMLNGCHPWTQFFRGPLCLKIASEPPPVREIPPSCAP
notes: as for B3

target: T2, NIK-T7 (Homo sapiens (Human), UniProt Q99558 1-947); assay: co-immunoprecipitation from 293 lysates, anti-T7 IP, anti-Myc blot
T2 construct: Full-length NIK in pEV3S with C-terminal T7 tag; also called pEV-NIK-T7

Row | Binder | binding result
1 | B1 | no binding
2 | B2 | no binding

target: T1, IKKα-T7; assay: as above

Row | Binder | binding result
3 | B1 | no binding
4 | B3 | no binding
5 | B4 | no binding
6 | B5 | no binding
